What all share (details): tags: R&D Systems, carrier free
Series [1] has as its target T1, IL-23 (human, p19/p40 heterodimer) (Homo sapiens, UniProt Q9NPF7;P29460 SEQ:20-189,SEQ:23-328). Kind of series: filter; 100 nM IL-23.
The target in series [2] is T1, IL-23 (human, p19/p40 heterodimer). The experiment in a line: filter; DPBS Ca Mg. As to the method:
The selection progress was monitored using the dot blot sandwich filter binding assay as described in Example 1A. The 5′-³²P-labeled pool RNA was refolded at 90° C. for 3 minutes and cooled to room temperature for 10 minutes. Next, pool RNA (trace concentration) was incubated with h-IL-23 DPBS plus 0.1 mg/mL tRNA for 30 minutes at room temperature and then applied to a nitrocellulose and nylon filter sandwich in a dot blot apparatus (Schleicher and Schuell). The percentage of pool RNA bound to the nitrocellulose was calculated and monitored approximately every 3 rounds with a single point screen (+/−250 nM h-IL-23). Pool KD measurements were measured using a titration of h-IL-23 protein (R&D, Minneapolis, Minn.) and the dot blot apparatus as described above.
The rRmY h-IL-23 selection was enriched for h-IL-23 binding vs. the naïve pool after 4 rounds of selection (data not shown). The selection stringency was increased and the selection was continued for 8 more rounds. […] The rGmH selection was enriched over the naïve pool binding at Round 10. […] FIG. 7 is a binding curve of rRmY and rGmH pool selection binding to h-IL-23. The pools were cloned using TOPO TA cloning kit (Invitrogen, Carlsbad, Calif.) and individual sequences were generated and tested for binding. A single point binding screen was initially performed on all crude rRmY clone transcriptions using a 1:200 dilution, +/−200 nM IL-23, plus 0.1 mg/mL competitor tRNA. […] The 10 point screen was performed using zero to 480 nM IL-23 in 3 fold serial dilutions. Binding curves were generated (KaleidaGraph v. 3.51, Synergy Software) and KDs were estimated by fitting the data to the equation: fraction RNA bound=amplitude[h-IL-23]/KD+[h-IL-23]). […] There was one group of 6 duplicate sequences and 4 pairs of 2 duplicate sequences out of the rRmY clones generated. […] Clones were also tested from 48 crude rGmH clone transcriptions at a 1:200 dilution and 0.1 mg/mL tRNA was used as competitor.

Series [3] has the same target. Kind of series: filter; -tRNA. As to the method: These molecules were gel purified and assayed for IL-23 binding using the dot blot assay as described above and compared to each other and to the parent molecule, ARC979. An 8 point IL-23 titration (0 nM to 300 nM, 3 fold serial dilutions) was used in the binding assay.

The values that follow come from patent publication US20060193821, “Aptamers to the human IL-12 cytokine family and their use as autoimmune disease therapeutics” (published 2006).

A word on the Kd: it is the concentration at which binding is half-saturated.

T1 sequence (Q9NPF7 20-189, chain 1 of 2): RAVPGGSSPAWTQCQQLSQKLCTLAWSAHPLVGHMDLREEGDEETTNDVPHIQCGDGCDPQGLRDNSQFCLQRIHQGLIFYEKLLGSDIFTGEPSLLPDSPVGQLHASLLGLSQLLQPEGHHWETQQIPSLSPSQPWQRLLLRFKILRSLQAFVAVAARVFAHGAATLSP
T1 sequence (P29460 23-328, chain 2 of 2): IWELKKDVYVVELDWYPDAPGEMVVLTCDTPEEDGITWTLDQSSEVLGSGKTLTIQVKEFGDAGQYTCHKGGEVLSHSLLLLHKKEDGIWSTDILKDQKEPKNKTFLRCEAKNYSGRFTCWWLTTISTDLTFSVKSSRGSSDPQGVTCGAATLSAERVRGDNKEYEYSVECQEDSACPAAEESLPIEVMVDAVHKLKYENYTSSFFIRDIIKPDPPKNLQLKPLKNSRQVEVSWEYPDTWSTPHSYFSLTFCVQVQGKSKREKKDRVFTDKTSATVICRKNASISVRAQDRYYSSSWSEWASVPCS

Regarding GGAUACCCGAGAGGGCUGGCGAAAGCCUCGGCGAGAGCUAUCC (ssRNA, 2'-F C,U) [Type 1.3], the binding signal in series [1] was 0.6 +/- ratio.

B1: rRmY clone SEQ 73 (ssRNA)
RNA: GGGAGAGGAGAGAACGUUCUACAAAUGAGAGCAGGCCGAAAAGGAGUCGCUCGCUGUCGAUCGAUCGAUCGAUG
modifications: 2'-OMe C,U
In the case of B1, the Kd in series [2] was 101 nM.

B2: rRmY clone SEQ 81 (ssRNA)
RNA: GGGAGAGGAGAGAACGUUCUACGAAUGAGAGCAGGCCGAAAAGGAGUCGCUCGCUGUCGAUCGAUCGAUCGAUG
modifications: 2'-OMe C,U
On to B2, for which the Kd in series [2] was 303 nM.

B3: rRmY clone SEQ 78 (ssRNA)
RNA: GGGAGAGGAGAGAACGUUCUACAAAAGAGAGCAGGCCGAAAAGGAGUCGCUCGCUGUCGAUCGAUCGAUCGAUG
modifications: 2'-OMe C,U
Turning to B3, in series [2], the Kd is 124 nM.

B4: rRmY clone SEQ 71 (ssRNA)
RNA: GGGAGAGGAGAGAACGUUCUACAAAUGAGAGCAGGCCGAAGAGGAGUCGCUCGCUGUCGAUCGAUCGAUCGAUG
modifications: 2'-OMe C,U
Consider B4, for which the Kd in series [2] came to 124 nM.

B5: rRmY clone SEQ 72 (ssRNA)
RNA: GGGAGAGGAGAGAACGUUCUACAAAUGAGAGCAGGCCGAAAAGGAGUCGCUCGCUGUCGAUCGAUCGAUCGAUG
modifications: 2'-OMe C,U
As to B5, the Kd in series [2] was 211 nM.

B6: rRmY clone SEQ 75 (ssRNA)
RNA: GGGAGAGGAGAGAACGUUCUACAGGUUAAGAGCAGGCUCAGGAAUGGAAGUCGCUGUCGAUCGAUCGAUCGAUG
modifications: 2'-OMe C,U
B6: the Kd in series [2] was found to be 479 nM.

B7: rRmY clone SEQ 77 (ssRNA)
RNA: GGGAGAGGAGAGAACGUUCUACAACAAAGCAGGCUCAUAGUAAUAUGGAAGUCGCUGUCGAUCGAUCGAUCGAUG
modifications: 2'-OMe C,U
Consider B7, for which the Kd in series [2] was 259 nM.

GGAAUCAUACCGAGAGGUAUUACCCCGAAAGGGGACCAUUCC (ssRNA, 2'-F C,U) [Type 2.1]: the binding signal in series [1] was 5.2 +/- ratio.

B8: C10.1 (ssRNA)
RNA: GGACACAAGAGAUGUAUUCAGGCGGUCCGCAUUGAUGUCAGUUAUGCGUAGCUCCGCC
modifications: 2'-F C,U
For B8, in series [1], the binding signal is 4.4 +/- ratio.

B9: rRmY clone SEQ 87 (ssRNA)
RNA: AGGAGAGGAGAGAACGUUCUACUAGAAGCAGGCUCGAAUACAAUUCGGAAGUCGCUGUCGAUCGAUCGAUCGAUG
modifications: 2'-OMe C,U
In the case of B9, the Kd in series [2] amounted to 122 nM.

B10: ARC1167 (mixed)
RNA: ACAGGCAAGUAAUUGGGGAGUGCGGGCGGGGUGU
modifications: deoxy A,G; 2'-OMe C,U; PS 28-29 [PS linkage 28-29; 2'-OMe C,U at 2,6,10,13,14,21,23,27,32,34; all A,G 2'-deoxy]
Regarding B10, the affinity in series [3], expressed as Kd, was 107 nM.

B11: ARC1158 (mixed)
RNA: ACAGGCAAGUAAUUGGGGAGUGCGGGCGGGGUGU
modifications: deoxy A,G; 2'-OMe C,U; PS 13-14 [PS between 13-14; 2'-OMe C,U at 2,6,10,13,14,21,23,27,32,34; deoxy A,G at all other positions]
Take B11: in series [3], the Kd was determined as 192 nM.

B12: ARC1169 (mixed)
RNA: ACAGGCAAGUAAUUGGGGAGUGCGGGCGGGGUGU
modifications: deoxy A,G; 2'-OMe C,U; PS 33-34 [PS linkage 33-34; 2'-OMe C,U at 2,6,10,13,14,21,23,27,32,34; all A,G 2'-deoxy]
As for B12, the affinity in series [3], expressed as Kd, was 74 nM.

B13: ARC1157 (mixed)
RNA: ACAGGCAAGUAAUUGGGGAGUGCGGGCGGGGUGU
modifications: deoxy A,G; 2'-OMe C,U; PS 12-13 [PS between 12-13; 2'-OMe C,U at 2,6,10,13,14,21,23,27,32,34; deoxy A,G at all other positions]
For B13, in series [3], binding was characterised by a dissociation constant (Kd) of 69 nM.

Turning to ACAGGCAAGUAAUUGGGGAGUGCGGGCGGGGUGU (mixed, deoxy A,G; 2'-OMe C,U; PS 8-9) [ARC1153], binding in series [3] was put at a Kd of 174 nM.

Take ACAGGCAAGUAAUUGGGGAGUGCGGGCGGGGUGU (mixed, deoxy A,G; 2'-OMe C,U; PS 6-7) [ARC1151]: the Kd in series [3] was found to be 142 nM.

B14: ARC1159 (mixed)
RNA: ACAGGCAAGUAAUUGGGGAGUGCGGGCGGGGUGU
modifications: deoxy A,G; 2'-OMe C,U; PS 14-15 [PS between 14-15; 2'-OMe C,U at 2,6,10,13,14,21,23,27,32,34; deoxy A,G at all other positions]
Consider B14, for which the Kd in series [3] stood at 77 nM.

B15: ARC1168 (mixed)
RNA: ACAGGCAAGUAAUUGGGGAGUGCGGGCGGGGUGU
modifications: deoxy A,G; 2'-OMe C,U; PS 32-33 [PS linkage 32-33; 2'-OMe C,U at 2,6,10,13,14,21,23,27,32,34; all A,G 2'-deoxy]
As for B15, the Kd in series [3] was 82 nM.

In turn, ACAGGCAAGUAAUUGGGGAGUGCGGGCGGGGUGU (mixed, deoxy A,G; 2'-OMe C,U; PS 7-8) [ARC1152] displayed a Kd in series [3] of 232 nM.

B16: ARC1166 (mixed)
RNA: ACAGGCAAGUAAUUGGGGAGUGCGGGCGGGGUGU
modifications: deoxy A,G; 2'-OMe C,U; PS 27-28 [PS between 27-28; 2'-OMe C,U at 2,6,10,13,14,21,23,27,32,34; deoxy A,G at all other positions]
The molecule B16 showed a Kd in series [3] of 132 nM.

B17: ARC1156 (mixed)
RNA: ACAGGCAAGUAAUUGGGGAGUGCGGGCGGGGUGU
modifications: deoxy A,G; 2'-OMe C,U; PS 11-12 [PS between 11-12; 2'-OMe C,U at 2,6,10,13,14,21,23,27,32,34; deoxy A,G at all other positions]
For B17, the equilibrium dissociation constant (Kd) in series [3] was found to be 369 nM.

B18: ARC1155 (mixed)
RNA: ACAGGCAAGUAAUUGGGGAGUGCGGGCGGGGUGU
modifications: deoxy A,G; 2'-OMe C,U; PS 10-11 [PS between 10-11; 2'-OMe C,U at 2,6,10,13,14,21,23,27,32,34; deoxy A,G at all other positions]
B18 gave a Kd in series [3] of 168 nM.

B19: ARC1164 (mixed)
RNA: ACAGGCAAGUAAUUGGGGAGUGCGGGCGGGGUGU
modifications: deoxy A,G; 2'-OMe C,U; PS 22-23 [PS between 22-23; 2'-OMe C,U at 2,6,10,13,14,21,23,27,32,34; deoxy A,G at all other positions]
Turning to B19, the Kd in series [3] was found to be 79 nM.

B20: ARC1165 (mixed)
RNA: ACAGGCAAGUAAUUGGGGAGUGCGGGCGGGGUGU
modifications: deoxy A,G; 2'-OMe C,U; PS 26-27 [PS between 26-27; 2'-OMe C,U at 2,6,10,13,14,21,23,27,32,34; deoxy A,G at all other positions]
B20 displayed a Kd in series [3] of 55 nM.

For the molecule GGAAUCAUACACAAGAGUGUAUUACCCCCAACCCAGGGGGACCAUUCC (ssRNA, 2'-F C,U) [D9.1], the binding signal in series [1] was 3.9 +/- ratio.

Turning to GGUUAAAUCUCAUCGUCCCCGUUUGGGGAU (ssRNA, 2'-F C,U) [F11.min1], in series [1], the binding signal is 0.6 +/- ratio.

B21: rRmY clone SEQ 86 (ssRNA)
RNA: GGGAGAGGAGAGAACGUUCUACUAAUGCAGGCUCAGUUACUACUGGAAGUCGCUGUCGAUCGAUCGAUCGAUG
modifications: 2'-OMe C,U
Turning to B21, the Kd in series [2] came out at 219 nM.

B22: A10.min1 (ssRNA)
RNA: GGAGAUCAUACACAAGAAGUUUUUUGUGCUCUGAGUACUCAGCGUCCGUAAGGGAUCUCC
modifications: 2'-F C,U
Turning to B22, in series [1], the binding signal was 3.1 +/- ratio.

Take GGCAUACACGAGAGUGCUGUCGAAAGACUCGGCCGAGAGGCUAUGCC (ssRNA, 2'-F C,U) [Type 1.1]: the binding signal in series [1] is 0.9 +/- ratio.

In the case of GGCAUACGCGAGAGCGCUGGCGAAAGCCUCGGCCGAGAGGCUAUGCC (ssRNA, 2'-F C,U) [Type 1.2], in series [1], the binding signal is 0.7 +/- ratio.

B23: rRmY clone SEQ 82 (ssRNA)
RNA: GGGAGAGGAGAGAACGUUCUACGAGAGGCAAGAGAGAGUCGCAUAAAAAAGACGCUGUCGAUCGAUCGAUCGAUG
modifications: 2'-OMe C,U
Take B23: the Kd in series [2] turned out to be 199 nM.

B24: B10.min1 (ssRNA)
RNA: GGAGCGAAUCAUACACAAGAAGUGCUUCAUGCGGCAAACUGCAUGACGUCGAAUAGAUAUGCUCC
modifications: 2'-F C,U
Turning to B24, the binding signal in series [1] was 33.9 +/- ratio.

B25: rRmY clone SEQ 74 (ssRNA)
RNA: GGGAGAGGAGAGAACGUUCUACGGUAAAGCAGGCUGACUGAAAGGUUGAAGUCGCUGUCGAUCGAUCGAUCGAUG
modifications: 2'-OMe C,U
Take B25: in series [2], the Kd was found to be 257 nM.

For the molecule GGAGGCGCCACGCUGAGUAUAGACGGAAGCUCCGCCUCC (ssRNA, 2'-F C,U) [C11.2], in series [1], the binding signal is 2.3 +/- ratio.

B26: rRmY clone SEQ 84 (ssRNA)
RNA: GGGAGAGGAGAGAACGUUCUACGGAAAAAGAUAUGAAAGAAAGGAUUAAGAGACGCUGUCGAUCGAUCGAUCGAUG
modifications: 2'-OMe C,U
For B26, the Kd in series [2] is 602 nM.

In the case of GGAUCAUACACAAGAAGUGCUUCACGAAAGUGACGUCGAAUAGAUCC (ssRNA, 2'-F C,U) [B10.min3], the binding signal in series [1] was 0.8 +/- ratio.

B27: C11.1 (ssRNA)
RNA: GGAAGAAUGGUCGGAAUCUCUGGCGCCACGCUGAGUAUAGACGGAAGCUCCGCCAGA
modifications: 2'-F C,U
Consider B27, for which the binding signal in series [1] is 3.5 +/- ratio.

With GGAGUCUGAGUACUCAGCGUCCCGAGAGGGGAUAUGCUCCGCCAGACUCC (ssRNA, 2'-F C,U) [A10.min4], the binding signal in series [1] was 0.7 +/- ratio.

Turning to GGAGUCUGAGUACUCAGCGUCCGUAAGGGAUAUGCUCCGCCAGACUCC (ssRNA, 2'-F C,U) [A10.min2], the binding signal in series [1] is 6 +/- ratio.
